Values joined by “and” are separate entries in the source; they are usually repeats but may differ in a detail not shown here. Identical values can stand only once.
Columns and labels:
FXII = test: Serum FXII protein by ELISA after single SC dose in cynomolgus monkeys (Example 4); assay type: in vivo, cynomolgus macaque (Macaca fascicularis); set-up: key to Avg cFXII normalized to pre-treatment and control: ratio to animal's pre-dose geometric mean, then to saline group mean
Protocol: (§1) Multimeric (dimer) RNAi agent conjugates that included metabolically stabilized NAG targeting ligands were evaluated for gene silencing activity in cynomolgus macaque (Macaca fascicularis) primates (referred to herein as “cynos”). Each of the multimeric RNAi agent conjugates evaluated included one RNAi agent of the conjugate having sufficient complementarity with the mouse Angiopoietin-like 3 (ANGPTL3) gene transcript, and a second RNAi agent having sufficient complementarity with the mouse Factor 12 (FXII) gene transcript. As discussed in more detail below, both FXII and ANGPTL3 gene expression levels were assessed.
(§2) At day 1, male cynos were given a single subcutaneous administration of 0.3 mL/kg animal weight (20 mg/mL concentration) containing 6.0 mg/kg (mpk) of a multimeric RNAi agent conjugate formulated in isotonic saline, or 3.0 mg/kg of two separate RNAi conjugates, according to the following Table 3.
(§3) Three (3) cynos were dosed in each Group (n=3). Serum samples were taken on days −14, −7, and day 1 (pre-dose). Serum was then collected on days 8, 15, 22, 29, 36 43, 50, 57, 64, 71, 78, 98, 106, 120, 133, 148, and 162.
(§4) ANGPTL3 protein levels in serum were measured by ELISA assay (R&D Systems), according to the manufacturer's recommendations. FXII protein levels in serum were measured by ELISA assay (R&D Systems), according to the manufacturer's recommendations. The ANGPTL3 protein levels and FXII protein levels for each animal were normalized. For normalization, the level of ANGPTL3 protein or FXII protein, respectively, for each animal at a time point, was divided by the geometric mean of pre-treatment level of expression in that animal (in this case at days −14, −7 and 1 (pre-dose)) to determine the ratio of expression “normalized to pre-treatment.” Expression at a specific time point was then normalized to the saline control group by dividing the “normalized to pre-treatment” ratio for an individual animal by the mean “normalized to pretreatment” ratio of all […] in the saline control group.

ANGPTL3 = test: Serum ANGPTL3 protein by ELISA after single SC dose in cynomolgus monkeys (Example 4); assay type: in vivo, cynomolgus macaque (Macaca fascicularis); set-up: key to Avg cANGPTL3 normalized to pre-treatment and control: ratio to animal's pre-dose geometric mean, then to saline group mean
Protocol: as §1, §2, §3, §4

[1] = Day 8, single SC dose day 1, 6.0 mg/kg (Group 1: 3.0+3.0 mg/kg)
[2] = Day 15, single SC dose day 1, 6.0 mg/kg (Group 1: 3.0+3.0 mg/kg)
[3] = Day 22, single SC dose day 1, 6.0 mg/kg (Group 1: 3.0+3.0 mg/kg)
[4] = Day 29, single SC dose day 1, 6.0 mg/kg (Group 1: 3.0+3.0 mg/kg)
[5] = Day 36, single SC dose day 1, 6.0 mg/kg (Group 1: 3.0+3.0 mg/kg)
[6] = Day 43, single SC dose day 1, 6.0 mg/kg (Group 1: 3.0+3.0 mg/kg)
[7] = Day 50, single SC dose day 1, 6.0 mg/kg (Group 1: 3.0+3.0 mg/kg)
[8] = Day 57, single SC dose day 1, 6.0 mg/kg (Group 1: 3.0+3.0 mg/kg)
[9] = Day 64, single SC dose day 1, 6.0 mg/kg (Group 1: 3.0+3.0 mg/kg)
[10] = Day 71, single SC dose day 1, 6.0 mg/kg (Group 1: 3.0+3.0 mg/kg)
[11] = Day 78, single SC dose day 1, 6.0 mg/kg (Group 1: 3.0+3.0 mg/kg)
[12] = Day 98, single SC dose day 1, 6.0 mg/kg (Group 1: 3.0+3.0 mg/kg)
[13] = Day 106, single SC dose day 1, 6.0 mg/kg (Group 1: 3.0+3.0 mg/kg)
[14] = Day 120, single SC dose day 1, 6.0 mg/kg (Group 1: 3.0+3.0 mg/kg)
[15] = Day 133, single SC dose day 1, 6.0 mg/kg (Group 1: 3.0+3.0 mg/kg)
[16] = Day 148, single SC dose day 1, 6.0 mg/kg (Group 1: 3.0+3.0 mg/kg)
[17] = Day 162, single SC dose day 1, 6.0 mg/kg (Group 1: 3.0+3.0 mg/kg)

Molecule | Avg cFXII normalized to pre-treatment and control (FXII; [1]) | Avg cFXII normalized to pre-treatment and control (FXII; [2]) | Avg cFXII normalized to pre-treatment and control (FXII; [3]) | cFXII knockdown (FXII; [3]) | Avg cFXII normalized to pre-treatment and control (FXII; [4]) | Avg cFXII normalized to pre-treatment and control (FXII; [5]) | Avg cFXII normalized to pre-treatment and control (FXII; [6]) | Avg cFXII normalized to pre-treatment and control (FXII; [7]) | Avg cFXII normalized to pre-treatment and control (FXII; [8]) | Avg cFXII normalized to pre-treatment and control (FXII; [9]) | Avg cFXII normalized to pre-treatment and control (FXII; [10]) | Avg cFXII normalized to pre-treatment and control (FXII; [11]) | Avg cFXII normalized to pre-treatment and control (FXII; [12]) | cFXII knockdown (FXII; [12]) | Avg cFXII normalized to pre-treatment and control (FXII; [13]) | Avg cFXII normalized to pre-treatment and control (FXII; [14]) | Avg cFXII normalized to pre-treatment and control (FXII; [15]) | Avg cFXII normalized to pre-treatment and control (FXII; [16]) | Avg cFXII normalized to pre-treatment and control (FXII; [17]) | Avg cANGPTL3 normalized to pre-treatment and control (ANGPTL3; [1]) | also measured
AD14216: multimeric (dimer) FXII-ANGPTL3 RNAi agent conjugate with NAG37s ligand, not metabolically stabilized, SEQ ID NO 5-7 (nucleic acid, NAG37s ligand conjugate; modified_base 1 OTHER; 5'-cyclopropyl phosphonate-2'-O-methyluridine; modified_base 1^2 OTHER; phosphorothioate linkage; modified_base 2 OTHER; 2'-fluorouridine; modified_base 2^3 OTHER; modified_base 3 cm; modified_base 3^4 OTHER; modified_base 4 OTHER; 2'-fluoroadenosine; modified_base 5 OTHER; 2'-O-methyladenosine; modified_base 6 OTHER; 2'-fl; phosphoro) chain 1: UUCAAAGCACUUUAUUGAG chain 2: UUGAGUUGAGUUCAAGUGA chain 3: UCACUUGAACUCAACUCAACUCAAUAAAGUGCUUUGAA | 0.481 | 0.320 | 0.222 | approximately 78% | 0.179 | 0.224 | 0.237 | 0.130 | 0.194 | 0.184 | 0.429 | 0.491 | 0.592 | approximately 41% | 0.520 | 0.567 | 0.784 | 0.589 | 0.728 | 0.442 | Avg cANGPTL3 normalized to pre-treatment and control (ANGPTL3; [2]): 0.362; Avg cANGPTL3 normalized to pre-treatment and control (ANGPTL3; [3]): 0.339; cANGPTL3 knockdown (ANGPTL3; [3]): approximately 66%; Avg cANGPTL3 normalized to pre-treatment and control (ANGPTL3; [4]): 0.403; Avg cANGPTL3 normalized to pre-treatment and control (ANGPTL3; [5]): 0.369; Avg cANGPTL3 normalized to pre-treatment and control (ANGPTL3; [6]): 0.394; Avg cANGPTL3 normalized to pre-treatment and control (ANGPTL3; [7]): 0.560; Avg cANGPTL3 normalized to pre-treatment and control (ANGPTL3; [8]): 0.622; Avg cANGPTL3 normalized to pre-treatment and control (ANGPTL3; [9]): 0.590; Avg cANGPTL3 normalized to pre-treatment and control (ANGPTL3; [10]): 0.641; Avg cANGPTL3 normalized to pre-treatment and control (ANGPTL3; [11]): 0.603; Avg cANGPTL3 normalized to pre-treatment and control (ANGPTL3; [12]): 0.666; Avg cANGPTL3 normalized to pre-treatment and control (ANGPTL3; [13]): 0.944; cANGPTL3 knockdown (ANGPTL3; [13]): no meaningful knockdown; Avg cANGPTL3 normalized to pre-treatment and control (ANGPTL3; [14]): 1.128; Avg cANGPTL3 normalized to pre-treatment and control (ANGPTL3; [15]): 1.129
AD14218: multimeric (dimer) FXII-ANGPTL3 RNAi agent conjugate with metabolically stabilized NAG52s ligand, SEQ ID NO 11-13 (nucleic acid, NAG52s ligand conjugate; modified_base 1 OTHER; 5'-cyclopropyl phosphonate-2'-O-methyluridine; modified_base 1^2 OTHER; phosphorothioate linkage; modified_base 2 OTHER; 2'-fluorouridine; modified_base 2^3 OTHER; modified_base 3 cm; modified_base 3^4 OTHER; modified_base 4 OTHER; 2'-fluoroadenosine; modified_base 5 OTHER; 2'-O-methyladenosine; modified_base 6 OTHER; 2'-fl; phosphoro) chain 1: UUCAAAGCACUUUAUUGAG chain 2: UUGAGUUGAGUUCAAGUGA chain 3: UCACUUGAACUCAACUCAACUCAAUAAAGUGCUUUGAA | 0.299 | 0.201 | 0.156 | approximately 85% | 0.077 | 0.058 | 0.058 | 0.032 | 0.056 | 0.038 | 0.094 | 0.109 | 0.139 | approximately 86% | 0.158 | 0.194 | 0.213 | 0.263 | 0.285 | 0.252 | cFXII inhibition (FXII; Day 162, single SC dose day 1, 6.0 mg/kg): more than 70%; Avg cANGPTL3 normalized to pre-treatment and control (ANGPTL3; [2]): 0.238; Avg cANGPTL3 normalized to pre-treatment and control (ANGPTL3; [3]): 0.137; cANGPTL3 knockdown (ANGPTL3; [3]): ~86%; Avg cANGPTL3 normalized to pre-treatment and control (ANGPTL3; [4]): 0.161; Avg cANGPTL3 normalized to pre-treatment and control (ANGPTL3; [5]): 0.186; Avg cANGPTL3 normalized to pre-treatment and control (ANGPTL3; [6]): 0.164; Avg cANGPTL3 normalized to pre-treatment and control (ANGPTL3; [7]): 0.212; Avg cANGPTL3 normalized to pre-treatment and control (ANGPTL3; [8]): 0.245; Avg cANGPTL3 normalized to pre-treatment and control (ANGPTL3; [9]): 0.352; Avg cANGPTL3 normalized to pre-treatment and control (ANGPTL3; [10]): 0.328; Avg cANGPTL3 normalized to pre-treatment and control (ANGPTL3; [11]): 0.354; Avg cANGPTL3 normalized to pre-treatment and control (ANGPTL3; [12]): 0.425; Avg cANGPTL3 normalized to pre-treatment and control (ANGPTL3; [13]): 0.565; cANGPTL3 knockdown (ANGPTL3; [13]): approximately 45%; Avg cANGPTL3 normalized to pre-treatment and control (ANGPTL3; [14]): 0.637; Avg cANGPTL3 normalized to pre-treatment and control (ANGPTL3; [15]): 0.672
AD14217: multimeric (dimer) FXII-ANGPTL3 RNAi agent conjugate with metabolically stabilized NAG42s ligand, SEQ ID NO 8-10 (nucleic acid, NAG42s ligand conjugate; modified_base 1 OTHER; 5'-cyclopropyl phosphonate-2'-O-methyluridine; modified_base 1^2 OTHER; phosphorothioate linkage; modified_base 2 OTHER; 2'-fluorouridine; modified_base 2^3 OTHER; modified_base 3 cm; modified_base 3^4 OTHER; modified_base 4 OTHER; 2'-fluoroadenosine; modified_base 5 OTHER; 2'-O-methyladenosine; modified_base 6 OTHER; 2'-fl; phosphoro) chain 1: UUCAAAGCACUUUAUUGAG chain 2: UUGAGUUGAGUUCAAGUGA chain 3: UCACUUGAACUCAACUCAACUCAAUAAAGUGCUUUGAA | 0.430 | 0.230 | 0.219 | approximately 78% | 0.095 | 0.126 | 0.103 | 0.104 | 0.065 | 0.093 | 0.211 | 0.230 | 0.316 | approximately 69% | 0.316 | 0.443 | 0.536 | 0.567 | 0.468 | 0.361 | Avg cANGPTL3 normalized to pre-treatment and control (ANGPTL3; [2]): 0.288; Avg cANGPTL3 normalized to pre-treatment and control (ANGPTL3; [3]): 0.194; cANGPTL3 knockdown (ANGPTL3; [3]): approximately 81%; Avg cANGPTL3 normalized to pre-treatment and control (ANGPTL3; [4]): 0.261; Avg cANGPTL3 normalized to pre-treatment and control (ANGPTL3; [5]): 0.246; Avg cANGPTL3 normalized to pre-treatment and control (ANGPTL3; [6]): 0.272; Avg cANGPTL3 normalized to pre-treatment and control (ANGPTL3; [7]): 0.327; Avg cANGPTL3 normalized to pre-treatment and control (ANGPTL3; [8]): 0.456; Avg cANGPTL3 normalized to pre-treatment and control (ANGPTL3; [9]): 0.548; Avg cANGPTL3 normalized to pre-treatment and control (ANGPTL3; [10]): 0.521; Avg cANGPTL3 normalized to pre-treatment and control (ANGPTL3; [11]): 0.505; Avg cANGPTL3 normalized to pre-treatment and control (ANGPTL3; [12]): 0.490; Avg cANGPTL3 normalized to pre-treatment and control (ANGPTL3; [13]): 0.777 and 0.770; cANGPTL3 knockdown (ANGPTL3; [13]): approximately 33%; Avg cANGPTL3 normalized to pre-treatment and control (ANGPTL3; [14]): 0.943; Avg cANGPTL3 normalized to pre-treatment and control (ANGPTL3; [15]): 0.892

Source: US20260176621A1, “Metabolically Stabilized Carbohydrate Targeting Ligands For Oligonucleotide Conjugates” (Arrowhead Pharmaceuticals, Inc., priority 2023, published 2026)
